Data taken from publication PMC4134230.

Assays:
[1] = test system: Tau (hTau42, longest isoform, unphosphorylated) (Homo sapiens); assay: SPR (kinetic); conditions: average of six determinations, 18-22 C; Kd given as 0.04 uM; immobilized on polylysine-heparin-polylysine gold surface; 10 mM Hepes, 0.1 M NaCl, pH 7; SPR at 13-33 C, DNA immobilized on polylysine-heparin-polylysine gold surface
[2] = test system: Tau (hTau42, longest isoform, unphosphorylated) (Homo sapiens); assay: SPR (equilibrium saturation); conditions: immobilized on polylysine-heparin-polylysine gold surface; 10 mM Hepes, 0.1 M NaCl, pH 7; SPR at 13-33 C, DNA immobilized on polylysine-heparin-polylysine gold surface

Substance: calf thymus DNA (activated type XV, Sigma)
- Ka [1]: 2.4 10^7 M^-1
- Ka [2]: 2.3 10^7 M^-1
